Assay results from patent US20230023093A1 (University of Pennsylvania, published 2023).

B1: HIV-1 Env Fab (VRC01 based Fab generated from pHIV-1 Env Fab) (Fab, V domains shown)
VH: QVQLVQSGGQMKKPGESMRISCRASGYEFIDCTLNWIRLAPGKRPEWMGWLKPRGGAVNYARPLQGRVTMTRDVYSDTAFLELRSLTVDDTAVYFCTRGKNCDYNWDFEHWGRGTPVIVSS
VL: QIVLTQSPGTLSLSPGETAIISCRTSQYGSLAWYQQRPGQAPRLVIYSGSTRAAGIPDRFSGSRWGPDYNLTISNLESGDFGVYYCQQYEFFGQGTKVQVDI
B2: CHIKV-Env-Fab (Fab, V domains shown)
VH: QVQLVQSGSELKKPGASVKVSCKASGYTLTRYAMTWVRQAPGQGLEWMGWINTYTGNPTYVQGFTGRFVFSLDTSVSTAFLHITSLKAEDTAVYFCAREGGARGFDYWGQGTLVTVSS
VL: QSVLTQPPSVSGAPGQRVTISCTGSSSNIGASHDVHWYQQLPGTAPTLLIYVNSNRPSGVPDRFSGSKSGTSASLAITGLQAEDEADYYCQSYDSNLSGSAVFGGGTKLTVLG

Experiments:
[1] = molecular target: T1, HIV-1 Env of clade B strain SF162 on transfected 293T cells (HIV-1 clade B, SF162, UniProt P19550 32-847); test: binding of day 6 mouse sera to Env expressed in transfected 293T cells (FIG. 12)
T1 construct: whole, on cells

[2] = molecular target: HIV-1 Env of the primary isolate Q23Env17 (pOpt-Env-A) (HIV-1 clade A, Q23Env17); test: cell-based or functional assay
[3] = molecular target: HIV-1 Env of Bal26 (clade B, Tier 1) on pseudotyped virus (HIV-1 clade B, Bal26); test: cell-based or functional assay
[4] = molecular target: HIV-1 Env of SF162S (clade B, Tier 1) on pseudotyped virus (HIV-1 clade B, SF162S); test: cell-based or functional assay
[5] = molecular target: recombinant HIV-1 Env (subtype B; MN) protein (HIV-1 subtype B, MN, UniProt P05877 32-513); test: binding ELISA, serial dilutions of day 14 mouse sera

Binder | binding result [1] | plateau percent neutralization (TZM-Bl luciferase assay, sera 1:50) [2] | plateau percent neutralization (TZM-Bl luciferase assay, sera 1:50) [3] | plateau percent neutralization (TZM-Bl luciferase assay, sera 1:50) [4] | binding result [5]
B1 | binds | ~60% | ~62% | ~70% | 
B2 |  |  |  |  | no binding
